Consider one molecule from patent US20220170923A1 (NATIONAL CHENG KUNG UNIVERSITY, published 2022).

This assay addresses T1, human angiotensin-converting enzyme 2 (ACE2) (human, UniProt Q9BYF1 18-740).
T1 construct: also called ACE2 receptor; human angiotensin-converting enzyme 2 on a cell surface
Description: protein microarray, ACE2 in solution, Cy3 labeled anti-human IgG detection.

T1 sequence (Q9BYF1 18-740 limits assumed): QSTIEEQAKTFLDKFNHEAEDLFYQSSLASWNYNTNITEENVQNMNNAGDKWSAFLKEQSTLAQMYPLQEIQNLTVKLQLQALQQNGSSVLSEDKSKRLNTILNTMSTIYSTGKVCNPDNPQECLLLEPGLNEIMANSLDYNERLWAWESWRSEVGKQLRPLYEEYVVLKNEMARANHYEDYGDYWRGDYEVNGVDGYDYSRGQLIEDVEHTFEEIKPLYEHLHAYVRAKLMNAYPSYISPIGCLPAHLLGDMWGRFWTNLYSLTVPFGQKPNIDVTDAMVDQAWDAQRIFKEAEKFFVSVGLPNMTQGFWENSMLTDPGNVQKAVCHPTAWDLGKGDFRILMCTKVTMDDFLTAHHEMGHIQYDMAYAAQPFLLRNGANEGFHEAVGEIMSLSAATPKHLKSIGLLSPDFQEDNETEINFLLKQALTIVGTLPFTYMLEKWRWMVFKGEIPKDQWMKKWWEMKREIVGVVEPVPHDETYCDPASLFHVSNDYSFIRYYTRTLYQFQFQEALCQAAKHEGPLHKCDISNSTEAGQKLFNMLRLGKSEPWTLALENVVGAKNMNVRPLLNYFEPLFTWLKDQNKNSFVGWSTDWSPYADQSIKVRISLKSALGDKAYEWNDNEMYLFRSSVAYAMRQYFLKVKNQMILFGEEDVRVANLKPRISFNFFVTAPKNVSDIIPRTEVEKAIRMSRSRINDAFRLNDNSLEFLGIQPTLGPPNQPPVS

B1: spike protein (S protein) of MERS-CoV with His-tag (other)
chain: YVDVGPDSVKSACIEVDIQQTFFDKTWPRPIDVSKADGIIYPQGRTYSNITITYQGLFPYQGDHGDMYVYSAGHATGTTPQKLFVANYSQDVKQFANGFVVRIGAAANSTGTVIISPSTSATIRKIYPAFMLGSSVGNFSDGKMGRFFNHTLVLLPDGCGTLLRAFYCILEPRSGNHCPAGNSYTSFATYHTPATDCSDGNYNRNASLNSFKEYFNLRNCTFMYTYNITEDEILEWFGITQTAQGVHLFSSRYVDLYGGNMFQFATLPVYDTIKYYSIIPHSIRSIQSDRKAWAAFYVYKLQPLTFLLDFSVDGYIRRAIDCGFNDLSQLHCSYESFDVESGVYSVSSFEAKPSGSVVEQAEGVECDFSPLLSGTPPQVYNFKRLVFTNCNYNLTKLLSLFSVNDFTCSQISPAAIASNCYSSLILDYFSYPLSMKSDLSVSSAGPISQFNYKQSFSNPTCLILATVPHNLTTITKPLKYSYINKCSRFLSDDRTEVPQLVNANQYSPCVSIVPSTVWEDGDYYRKQLSPLEGGGWLVASGSTVAMTEQLQMGFGITVQYGTDTNSVCPKLEFANDTKIASQLGNCVEYSLYGVSGRGVFQNCTAVGVRQQRFVYDAYQNLVGYYSDDGNYYCLRACVSVPVSVIYDKETKTHATLFGSVACEHISSTMSQYSRSTRSMLKRRDSTYGPLQTPVGCVLGLVNSSLFVEDCKLPLGQSLCALPDTPSTLTPRSVRSVPGEMRLASIAFNHPIQVDQLNSSYFKLSIPTNFSFGVTQEYIQTTIQKVTVDCKQYVCNGFQKCEQLLREYGQFCSKINQALHGANLRQDDSVRNLFASVKSSQSSPIIPGFGGDFNLTLLEPVSISTGSRSARSAIEDLLFDKVTIADPGYMQGYDDCMQQGPASARDLICAQYVAGYKVLPPLMDVNMEAAYTSSLLGSIAGVGWTAGLSSFAAIPFAQSIFYRLNGVGITQQVLSENQKLIANKFNQALGAMQTGFTTTNEAFHKVQDAVNNNAQALSKLASELSNTFGAISASIGDIIQRLDVLEQDAQIDRLINGRLTTLNAFVAQQLVRSESAALSAQLAKDKVNECVKAQSKRSGFCGQGTHIVSFVVNAPNGLYFMHVGYYPSNHIEVVSAYGLCDAANPTNCIAPVNGYFIKTNNTRIVDEWSYTGSSFYAPEPITSLNTKYVAPQVTYQNISTNLPPPLLGNSTGIDFQDELDEFFKNVSTSIPNFGSLTQINTTLLDLTYEMLSLQQVVKALNESYIDLKELGNYTYYNKWPW
Regarding B1, the binding result is “no binding (tested: 25 ng, 50 ng, 75 ng, 100 ng, and 125 ng)”.
